The target in this experiment is T1, nucleoside-disphosphate kinase B (NME2) (human (endogenous in HEK293)), P22392.
T1 chain: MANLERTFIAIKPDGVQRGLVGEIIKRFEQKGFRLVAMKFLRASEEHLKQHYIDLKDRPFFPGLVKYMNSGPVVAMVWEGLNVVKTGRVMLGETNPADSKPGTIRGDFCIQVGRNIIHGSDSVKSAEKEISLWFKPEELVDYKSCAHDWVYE
The experiment can be described thus: cross-linking; in vivo: intact 293 HBTH-CSN2 cells, 1 mM TSTO in PBS pH 7.4, 1 h, room temperature; SEC-HpHt separation of peptides, LC-MSn. The following applies: remark: other sources report otherwise.

B1: nucleoside-disphosphate kinase B (NME2), P22392 1-152 (natural protein)
chain: MANLERTFIAIKPDGVQRGLVGEIIKRFEQKGFRLVAMKFLRASEEHLKQHYIDLKDRPFFPGLVKYMNSGPVVAMVWEGLNVVKTGRVMLGETNPADSKPGTIRGDFCIQVGRNIIHGSDSVKSAEKEISLWFKPEELVDYKSCAHDWVYE
As a reminder, the stoichiometry N is the number of molecules, sites or subunits per partner or assembly. As for B1, the stoichiometry N amounted to 3.

(Values after publication PMC12215968.)
